Results taken from US8765433B2, “Alcohol dehydrogenases (ADH) useful for fermentive production of lower alkyl alcohols” (priority 2009, dated 2014).

What was measured:
[1] = substrate: CC(C)C=O; assay: isobutyraldehyde reduction kinetics (A340, initial rates); format: biochemical, Saccharomyces cerevisiae; conditions: other: 30° C., pH 7.0, NADPH specific
[2] = substrate: CC(C)C=O; assay: purified protein, by the assay type; format: biochemical, Beijerinckia indica; conditions: other: 30° C., pH 7.0, 200 μM NADH
[3] = substrate: CC(C)CO; assay: isobutanol oxidation kinetics; format: biochemical, Beijerinckia indica; conditions: other: 30° C., pH 8.8, 7.5 mM NAD
Protocol: (§1) As a routine practice, the crude extracts and purified proteins were assayed for butanol oxidation activity, in order to ensure that the recombinant proteins were active throughout the purification process. […] Alcohol oxidation activities were carried out in 50 mM sodium phosphate buffer at pH 8.8 and aldehyde reduction reactions were assayed in 190 mM potassium phosphate buffer at pH 7.0. Depending on the nature of reaction being carried out, the enzyme and cofactor stocks were diluted in the reaction buffers at the respective pHs. Either buffer or cell extract prepared from the proprietary E. coli strain (with no ADH plasmid) was used as the negative control for assays with purified protein and cell-free extracts, respectively.
(§2) Kinetic constants of the ADH enzymes were calculated and compared to identify those candidate ADH enzymes with the most desirable properties for the conversion of isobutyraldehyde to isobutanol in the last step of the engineered pathway for isobutanol production. The assays for determining the kinetic constants were carried out using initial rates from the assays described above. […] The concentration of a given enzyme was such that it was conducive for the measurement of initial velocities over a 1-min time course. […] The kcat/KM is derived from the individual numbers of kcat and KM and not an experimentally determined value. […]

[4] = substrate: NC(=O)C1=CN([C@@H]2O[C@H](COP(=O)(O)OP(=O)(O)OC[C@H]3O[C@@H](n4cnc5c(N)ncnc54)[C@H](O)[C@@H]3O)[C@@H](O)[C@H]2O)C=CC1; assay: purified protein, by the assay type; conditions: other: cofactor; 30.0 °C
[5] = substrate: CC(C)C=O; assay: isobutyraldehyde reduction kinetics (A340, initial rates); format: biochemical, Clostridium beijerinckii; conditions: other: 30° C., pH 7.0, NADPH specific
[6] = substrate: CC(C)C=O; assay: as above; format: biochemical, Thermus sp. ATN1; conditions: other: 30° C., pH 7.0, NADH specific
Protocol: The assays for determining the kinetic constants were carried out using initial rates from the assays described above. […] The concentration of a given enzyme was such that it was conducive for the measurement of initial velocities over a 1-min time course. For each enzyme, Michaelis-Menten plots were generated with a broad range of substrate concentrations. Rough estimates of KM were obtained, based on which the assays were redesigned so as to use substrate concentrations in the range 0.5 to 10 times the KM value, to be able to obtain the appropriate kinetic constants. […] The Enzyme kinetics module (Version 1.3) of SigmaPlot 11 (Systat Software, Inc.) was used to fit data to Michaelis-Menten equations and calculate the kinetic constants. The kcat/KM is derived from the individual numbers of kcat and KM and not an experimentally determined value.
All other numbers are values from either one assay or are averages from 2 assays performed with the same enzyme sample.

[7] = substrate: CC(C)CO; assay: isobutanol oxidation kinetics; format: biochemical, horse; conditions: other: 30° C., pH 8.8, 7.5 mM NAD
Protocol: as §1, §2

[8] = substrate: CC(C)C=O; assay: isobutyraldehyde reduction kinetics (A340, initial rates); format: biochemical, horse; conditions: other: 30° C., pH 7.0, 200 μM NADH
[9] = substrate: CC(C)C=O; assay: as above; format: biochemical, Methylocella silvestris BL2; conditions: other: 30° C., pH 7.0, NADH specific
Text: (§3) This example describes preparation of ADH-gene constructs for over-expression/purification and measurement of enzyme activities using a time-course assay. Horse-liver ADH (HLADH; A-6128) was purchased from Sigma. Achromobacter xylosoxidans SadB (SadB), Saccharomyces cerevisiae ADH6 (ScADH6) and ADH7 (ScADH7), Entamoeba histolytica ADH1 (EhADH1), Bos Taurus Aldehyde Reductase (BtARD), Beijerinckia indica subsp. Indica ATCC 9039 (BiADH), Clostridium beijerinckii ADH (CbADH), Rana perezi ADH8 (RpADH8), Rattus norvegicus ADH1 (RnADH1), Thermus sp. ATN1 ADH (TADH), Phenylobacterium zucineum HLK1 ADH (PzADH), Methylocella silvestris BL2 ADH (MsADH), Acinetobacter baumannii AYE ADH (AbADH), Geobacillus sp. WCH70 ADH (GbADH), Vanderwaltozyma polyspora DSM 70294 ADH (VpADH), Mucor circinelloides ADH (McADH), and Rhodococcus erythropolis PR4ADH (ReADH) were the candidates for which subclones were prepared for protein expression and purification.
(§4) As a routine practice, the crude extracts and purified proteins were assayed for butanol oxidation activity, in order to ensure that the recombinant proteins were active throughout the purification process. […] Alcohol oxidation activities were carried out in 50 mM sodium phosphate buffer at pH 8.8 and aldehyde reduction reactions were assayed in 190 mM potassium phosphate buffer at pH 7.0. […]
(§5) Kinetic constants of the ADH enzymes were calculated and compared to identify those candidate ADH enzymes with the most desirable properties for the conversion of isobutyraldehyde to isobutanol in the last step of the engineered pathway for isobutanol production. […] The kcat/KM is derived from the individual numbers of kcat and KM and not an experimentally determined value. […]
(§6) Seven additional candidate ADH enzymes were synthesized, expressed, and assayed according to methods such as described in Example 2. […] A comparison of KM, KI, and kcat/KM for each candidate enzyme as compared to the same parameter for SadB are given in Table 9 as a percentage of the values determined (Table 7) for SadB. […]

[10] = substrate: CC(C)C=O; assay: as above; format: biochemical, Phenylobacterium zucineum HLK1; conditions: other: 30° C., pH 7.0, NADH specific
Text: as §3, §4, §5, §6

B1: Saccharomyces cerevisiae ADH6 (ScADH6), SEQ ID NO: 22 (Saccharomyces cerevisiae S288C) (protein)
chain: MSYPEKFEGIAIQSHEDWKNPKKTKYDPKPFYDHDIDIKIEACGVCGSDIHCAAGHWGNMKMPLVVGHEIVGKVVKLGPKSNSGLKVGQRVGVGAQVFSCLECDRCKNDNEPYCTKFVTTYSQPYEDGYVSQGGYANYVRVHEHFVVPIPENIPSHLAAPLLCGGLTVYSPLVRNGCGPGKKVGIVGLGGIGSMGTLISKAMGAETYVISRSSRKREDAMKMGADHYIATLEEGDWGEKYFDTFDLIVVCASSLTDIDFNIMPKAMKVGGRIVSISIPEQHEMLSLKPYGLKAVSISYSALGSIKELNQLLKLVSEKDIKIWVETLPVGEAGVHEAFERMEKGDVRYRFTLVGYDKEFSD
notes: hexa-histidine (pBADHisA) (N); made in house; host or cells: E. coli (BL21-CodonPlus or a proprietary E. coli strain)
In the case of B1, the Km [1] is reported as 0.6 mM, the kcat [1] is reported as 47 s⁻¹ and the kcat/Km [1] is reported as 81000 M⁻¹ s⁻¹.

B2: Saccharomyces cerevisiae ADH7 (ScADH7), SEQ ID NO: 23 (Saccharomyces cerevisiae S288C) (protein)
chain: MLYPEKFQGIGISNAKDWKHPKLVSFDPKPFGDHDVDVEIEACGICGSDFHIAVGNWGPVPENQILGHEIIGRVVKVGSKCHTGVKIGDRVGVGAQALACFECERCKSDNEQYCTNDHVLTMWTPYKDGYISQGGFASHVRLHEHFAIQIPENIPSPLAAPLLCGGITVFSPLLRNGCGPGKRVGIVGIGGIGHMGILLAKAMGAEVYAFSRGHSKREDSMKLGADHYIAMLEDKGWTEQYSNALDLLVVCSSSLSKVNFDSIVKIMKIGGSIVSIAAPEVNEKLVLKPLGLMGVSISSSAIGSRKEIEQLLKLVSEKNVKIWVEKLPISEEGVSHAFTRMESGDVKYRFTLVDYDKKFHK
notes: as for B1
B2 gave a Km [1] of 0.3 mM, a kcat [1] of 36 s⁻¹ and a kcat/Km [1] of 120000 M⁻¹ s⁻¹.

B3: Beijerinckia indica subsp. Indica ATCC 9039 ADH (BiADH), SEQ ID NO: 31 (Beijerinckia indica subsp. indica ATCC 9039) (protein)
chain: MKALVYRGPGQKLVEERQKPELKEPGDAIVKVTKTTICGTDLHILKGDVATCKPGRVLGHEGVGVIESVGSGVTAFQPGDRVLISCISSCGKCSFCRRGMFSHCTTGGWILGNEIDGTQAEYVRVPHADTSLYRIPAGADEEALVMLSDILPTGFECGVLNGKVAPGSSVAIVGAGPVGLAALLTAQFYSPAEIIMIDLDDNRLGLAKQFGATRTVNSTGGNAAAEVKALTEGLGVDTAIEAVGIPATFELCQNIVAPGGTIANVGVHGSKVDLHLESLWSHNVTITTRLVDTATTPMLLKTVQSHKLDPSRLITHRFSLDQILDAYETFGQAASTQALKVIISMEA
Work on B3 yielded a Km [2] of 0.2 mM, a kcat [2] of 283 s⁻¹ and a kcat/Km [2] of 1.25e+06 M⁻¹ s⁻¹. The Km [3] was “KM = 4.7 mM] mM” and the Km [4] was “KM (NADH) = 0.06 mM mM”.

B4: Clostridium beijerinckii ADH (CbADH), SEQ ID NO: 29 (Clostridium beijerinckii) (protein)
chain: MKGFAMLGINKLGWIEKERPVAGSYDAIVRPLAVSPCTSDIHTVFEGALGDRKNMILGHEAVGEVVEVGSEVKDFKPGDRVIVPCTTPDWRSLEVQAGFQQHSNGMLAGWKFSNFKDGVFGEYFHVNDADMNLAILPKDMPLENAVMITDMMTTGFHGAELADIQMGSSVVVIGIGAVGLMGIAGAKLRGAGRIIGVGSRPICVEAAKFYGATDILNYKNGHIVDQVMKLTNGKGVDRVIMAGGGSETLSQAVSMVKPGGIISNINYHGSGDALLIPRVEWGCGMAHKTIKGGLCPGGRLRAEMLRDMVVYNRVDLSKLVTHVYHGFDHIEEALLLMKDKPKDLIKAVVIL
notes: as for B1
Protein B4 has a Km [5] of 1.5 mM, a kcat [5] of 123 s⁻¹ and a kcat/Km [5] of 85000 M⁻¹ s⁻¹.

B5: Thermus sp. ATN1 ADH (TADH), SEQ ID NO: 33 (Thermus sp. ATN1) (protein)
chain: MRAVVFENKERVAVKEVNAPRLQHPLDALVRVHLAGICGSDLHLYHGKIPVLPGSVLGHEFVGQVEAVGEGIQDLQPGDWVVGPFHIACGTCPYCRRHQYNLCERGGVYGYGPMFGNLQGAQAEILRVPFSNVNLRKLPPNLSPERAIFAGDILSTAYGGLIQGQLRPGDSVAVIGAGPVGLMAIEVAQVLGASKILAIDRIPERLERAASLGAIPINAEQENPVRRVRSETNDEGPDLVLEAVGGAATLSLALEMVRPGGRVSAVGVDNAPSFPFPLASGLVKDLTFRIGLANVHLYIDAVLALLASGRLQPERIVSHYLPLEEAPRGYELFDRKEALKVLLVVRG
B5 gave a Km [6] of 1.3 mM, a kcat [6] of 15 s⁻¹ and a kcat/Km [6] of 11000 M⁻¹ s⁻¹.

B6: horse liver ADH (HLADH), SEQ ID NO: 21 (Equus caballus) (protein)
chain: MSTAGKVIKCKAAVLWEEKKPFSIEEVEVAPPKAHEVRIKMVATGICRSDDHVVSGTLVTPLPVIAGHEAAGIVESIGEGVTTVRPGDKVIPLFTPQCGKCRVCKHPEGNFCLKNDLSMPRGTMQDGTSRFTCRGKPIHHFLGTSTFSQYTVVDEISVAKIDAASPLEKVCLIGCGFSTGYGSAVKVAKVTQGSTCAVFGLGGVGLSVIMGCKAAGAARIIGVDINKDKFAKAKEVGATECVNPQDYKKPIQEVLTEMSNGGVDFSFEVIGRLDTMVTALSCCQEAYGVSVIVGVPPDSQNLSMNPMLLLSGRTWKGAIFGGFKSKDSVPKLVADFMAKKFALDPLITHVLPFEKINEGFDLLRSGESIRTILTF
notes: purchased Sigma A-6128
In the case of B6, the Km [7] is reported as “KM = 0.4 mM] mM”, the Km [8] is reported as 0.1 mM and the kcat [8] is reported as 8 s⁻¹. It also gave a kcat/Km [8] of 82000 M⁻¹ s⁻¹.

B7: Methylocella silvestris BL2 ADH (MsADH), SEQ ID NO: 35 (Methylocella silvestris BL2) (protein)
chain: MKALVYHGPGQKALEERPKPQIEASGDAIVKIVKTTICGTDLHILKGDVATCAPGRILGHEGVGIIDSVGAGVTAFQPGDRVLISCISSCGKCDYCRRGLYSHCTTGGWILGNEIDGTQAEYVRTPHADTSLYRIPAGADEEALVMLSDILPTGFECGVLNGKVEPGSTVAIVGAGPIGLAALLTAQFYAPGDIIMIDLDDNRLDVARRFGATHTINSGDGKAAEAVKALTGGIGVDTAIEAVGIPATFLLCEDIVAPGGVIANVGVHGVKVDLHLERLWAHNITITTRLVDTVTTPMLLKTVQSKKLDPLQLITHRFTLDHILDAYDTFSRAADTKALKVIVSA
In the case of B7, the Km [9] is reported as 0.06 mM, the kcat [9] is reported as 33 s⁻¹ and the kcat/Km [9] is reported as 530000 M⁻¹ s⁻¹.

B8: Phenylobacterium zucineum HLK1 ADH (PzADH), SEQ ID NO: 34 (Phenylobacterium zucineum HLK1) (protein)
chain: MKALVYGGPGQKSLEDRPKPELQAPGDAIVRIVKTTICGTDLHILKGDVATCAPGRILGHEGVGIVDSVGAAVTAFRPGDHVLISCISACGKCDYCRRGMYSHCTTGGWILGNEIDGTQAEYVRTPHADTSLYPVPAGADEEALVMLSDILPTGFECGVLNGKVAPGGTVAIVGAGPIGLAALLTAQFYSPAEIIMIDLDDNRLGIARQFGATQTINSGDGRAAETVKALTGGRGVDTAIEAVGVPATFELCQDLVGPGGVIANIGVHGRKVDLHLDRLWSQNIAITTRLVDTVSTPMLLKTVQSRKLDPSQLITHRFRLDEILAAYDTFARAADTQALKVIIAA
In the case of B8, the Km [10] is reported as 0.1 mM, the kcat [10] is reported as 30 s⁻¹ and the kcat/Km [10] is reported as 321000 M⁻¹ s⁻¹.
